This is an account of results in patent US20150017115A1 (RAMOT AT TEL AVIV UNIVERSITY, published 2015).

Ends that are not written are not given here. CF = 5(6)-carboxyfluorescein

The test addresses T1, Neural cell adhesion molecule (NCAM, CD56) (human, UniProt P13591 20-858).
T1 construct: whole, on cells
Description: confocal microscopy of Saos-2 cells with fluorescently labeled peptide. The procedure: Cell specificity and uptake of the fluorescently labeled peptides was monitored utilizing a Zeiss Meta LSM 510 confocal imaging system. Cells were plated on glass slides and incubated overnight. The following day cells were incubated with 100 μM of CF-NTP or CF-scrambled peptide for 30 minutes at 37° C., washed several times with PBS, fixated with 4% paraformaldehyde, stained with Hoechst stain and mounted on slides. In order to examine intracellular trafficking of the peptide, cells were incubated with the peptides in serum free medium, washed several times with cold PBS and incubated with […] AlexaFluor 594 human transferrin for 1 h at 37° C. Cells were washed several times with PBS, fixated with 4% PFA, stained with Hoechst stain and mounted on slides.
Binding of NTP (SEQ ID NO:1) to Saos-2 cells, compared to binding of sNTP (SEQ ID NO:2), was examined by confocal microscopy. FITC-labeled targeting peptides were used. […] In experiments with transferrin, peptide was seen as intracellular aggregates or vesicles, though not colocalized with transferrin.

T1 sequence (P13591 20-858): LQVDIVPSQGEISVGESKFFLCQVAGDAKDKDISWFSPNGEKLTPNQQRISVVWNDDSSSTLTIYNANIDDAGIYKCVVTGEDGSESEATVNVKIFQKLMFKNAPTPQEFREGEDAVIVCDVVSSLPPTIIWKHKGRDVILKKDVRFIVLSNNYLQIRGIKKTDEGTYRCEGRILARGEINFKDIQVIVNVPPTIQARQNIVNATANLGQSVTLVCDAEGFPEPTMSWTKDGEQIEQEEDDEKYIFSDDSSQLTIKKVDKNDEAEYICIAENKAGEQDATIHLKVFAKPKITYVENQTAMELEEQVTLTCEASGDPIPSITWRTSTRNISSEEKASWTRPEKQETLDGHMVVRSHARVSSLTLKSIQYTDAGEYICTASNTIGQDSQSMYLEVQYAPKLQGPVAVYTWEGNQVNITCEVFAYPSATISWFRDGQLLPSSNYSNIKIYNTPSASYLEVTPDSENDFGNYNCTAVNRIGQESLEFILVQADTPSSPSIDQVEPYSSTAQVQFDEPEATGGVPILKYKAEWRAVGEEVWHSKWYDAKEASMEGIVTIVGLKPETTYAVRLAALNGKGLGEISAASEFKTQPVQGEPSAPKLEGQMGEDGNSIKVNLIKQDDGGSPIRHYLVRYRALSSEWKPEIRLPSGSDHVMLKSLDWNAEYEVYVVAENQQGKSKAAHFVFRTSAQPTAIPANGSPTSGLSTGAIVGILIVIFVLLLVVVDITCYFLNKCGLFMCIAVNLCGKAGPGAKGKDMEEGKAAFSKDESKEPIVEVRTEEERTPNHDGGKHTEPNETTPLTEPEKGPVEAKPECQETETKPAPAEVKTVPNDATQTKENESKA

B1: scrambled NTP sequence (sNTP), fluorescein-labeled (peptide)
peptide: {CF}-GESDDEND
notes: also called scrambled peptide; CF-scrambled peptide
Take B1: the binding result is on record as “no binding (tested: 100 µM)”.
